{"source": "patent US20170369545A1", "target": "tyrosine kinase receptor MET on HeLa cells (UniProt P08581)", "sequence (P08581 25-1390 limits assumed)": "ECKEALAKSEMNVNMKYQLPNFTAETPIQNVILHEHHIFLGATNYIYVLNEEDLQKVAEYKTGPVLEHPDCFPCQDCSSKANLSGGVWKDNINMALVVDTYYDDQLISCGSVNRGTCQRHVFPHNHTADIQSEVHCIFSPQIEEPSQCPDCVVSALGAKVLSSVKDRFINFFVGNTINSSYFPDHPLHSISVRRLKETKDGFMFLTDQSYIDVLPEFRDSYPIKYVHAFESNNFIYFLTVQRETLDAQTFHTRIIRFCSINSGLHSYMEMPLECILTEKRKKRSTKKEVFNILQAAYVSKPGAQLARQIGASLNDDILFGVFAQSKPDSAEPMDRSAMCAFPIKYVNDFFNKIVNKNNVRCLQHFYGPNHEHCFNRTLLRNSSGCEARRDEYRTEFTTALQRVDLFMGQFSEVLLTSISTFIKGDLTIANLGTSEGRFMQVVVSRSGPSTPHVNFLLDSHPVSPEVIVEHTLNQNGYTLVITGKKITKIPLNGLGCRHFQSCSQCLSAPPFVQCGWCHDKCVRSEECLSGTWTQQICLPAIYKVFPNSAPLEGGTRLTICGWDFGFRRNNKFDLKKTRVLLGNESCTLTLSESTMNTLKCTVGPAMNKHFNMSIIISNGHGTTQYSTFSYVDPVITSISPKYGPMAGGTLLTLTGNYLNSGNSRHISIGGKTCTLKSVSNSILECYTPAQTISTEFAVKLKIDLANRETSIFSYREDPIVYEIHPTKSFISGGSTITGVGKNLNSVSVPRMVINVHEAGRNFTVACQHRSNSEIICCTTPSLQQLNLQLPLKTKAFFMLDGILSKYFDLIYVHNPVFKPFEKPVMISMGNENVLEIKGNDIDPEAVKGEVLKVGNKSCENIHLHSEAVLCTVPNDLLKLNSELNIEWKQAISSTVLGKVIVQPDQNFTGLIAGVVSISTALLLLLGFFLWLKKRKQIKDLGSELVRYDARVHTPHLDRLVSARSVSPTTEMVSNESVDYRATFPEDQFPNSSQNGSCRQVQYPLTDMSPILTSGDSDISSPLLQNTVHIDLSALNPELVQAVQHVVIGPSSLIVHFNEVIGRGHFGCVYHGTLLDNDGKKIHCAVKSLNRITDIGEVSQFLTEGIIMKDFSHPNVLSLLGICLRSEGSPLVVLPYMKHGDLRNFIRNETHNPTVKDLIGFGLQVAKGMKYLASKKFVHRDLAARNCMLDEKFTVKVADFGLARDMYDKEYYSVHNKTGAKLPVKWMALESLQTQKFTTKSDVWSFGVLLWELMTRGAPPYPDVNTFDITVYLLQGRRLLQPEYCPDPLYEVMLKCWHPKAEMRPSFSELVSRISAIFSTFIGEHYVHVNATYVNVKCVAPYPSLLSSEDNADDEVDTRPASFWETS"}
{"substance": "Hepatocyte growth factor/scatter factor (HGF/SF) (from UniProt P14210 32-728) (ligand)", "values": [{"measurement": "EC50 (read off the curve), Akt phosphorylation (P-AKT) [P-AKT]", "value": 0.03, "unit": "nM"}, {"measurement": "EC50 (read off the curve), ERK phosphorylation (P-ERK) [P-ERK]", "value": 0.02, "unit": "nM"}]}
